Measured values: publication PMC8683389, “The monofunctional CO dehydrogenase CooS is essential for growth of Thermoanaerobacter kivui on carbon monoxide” (Extremophiles, 2021)

Target: the molecule itself
Test: SEC; analytical size exclusion on a calibrated Superdex 200 column, buffer B, size standards 43-440 kDa; oligomeric state of the purified complex

B1: His-CooSF1 complex of Thermoanaerobacter kivui (complex)
chain 1: MSDNYIYSAEKVIDELSRKPGFVDTAIKRWEKRDPKCGFGYKGICCRLCSNGPCRITPTQPVGICGATADTIVARNLLRAIAAGTSCYVHHCRNAANTLLSVAEGKSSYTIKDEEKLKKYAKKMGINTNKDIKRIAYEFATRVLNDLSKPYTEKAELVEKLSLPARVSTWKSLNIMPGGVNEEIIAALTKTSTNLNSDPVDMAVHCLRLGIITGIYGLELTCIMQDILLGSPKIASTYSNFGVIDQGYINLATIGGHQQVVSNRILEMASSKEWVKKAQEAGAKGFKIYGVTCVGQDYELRCASDKNSAFGGYVGNNFTQEYILGTGAIDLVFSEFNCTLPGIEPICKEYLVKQICLDDVAKKVGADLYQFQPEKADEYAAITLDEAIKAYKNRRGKVKIDVPTEKTPAMTGFTEDSIKGALGGSWKLLIDLIVKGDIKGVAGVVGCSNMAAKGHGIYGVELTKELIKRDILVLGNGCVGGNLENAGLYGLESIELAGPKLKEVCRKLNIPPVLNIGPCLSIGRIHIIAEEIAEELKVDVPQIPVVASAPQWLEEQALADGTFGVVLGLDLLLGTPPAVTGSNLITELLTSKLKDMVGARFIIEADPILGADAMESSIMERRKLLNI
chain 2: MDVKSGTKYIFADIKKCLGCRCCEQACADANGNRPYWELLGSGIPLSPNINILYIFLQDKNYPVMAQAVCRQCEDAPCVKICPVKAISVNPDGIKVIDKQRCIGCHSCSIVCPFGAVYIPDKHAVATKCTLCIERKGAEGQPACVEACPNGALQLVDTKEIGREKVKKIVSDTFSNK
notes: as the chain of m1; as the chain of m2; Written as the CooS-CooF1 unit; also called His-CooFS1; source: T. kivui pMU131_His-cooS, purified (Ni2+-NTA, Superdex 200); not shown: 10 x His, N-terminal, kept
B1 was tested, and the “stoichiometry N” value was 6.
